From article doi:10.1101/646075 (bioRxiv, 2019) come the findings set out here.

Broadly, the Kd is the concentration at which binding is half-saturated. Read a low Kd as tighter binding. For orientation: koff means the rate constant with which the complex falls apart. A higher koff goes with fast dissociation. A word on the kon: it is the second-order rate constant of association. Lower therefore signals slower complex formation. A word on the stoichiometry N: it is a count of units in the complex or per binding partner.

Assay [1] concerns the target apo-transferrin (iron-unbound transferrin) (human) (UniProt P02787).
The target is the same in assay [2]. The experiment in a line: SPR. (In general: In SPR one partner is held on a chip, and binding of the other changes the refractive index at the surface.)
For another assay, the target named is human α-thrombin (human) (UniProt P00734).
In assay [3] the target is T1, apo-transferrin (iron-unbound transferrin) (human, UniProt P02787 20-698). The experiment in a line: SPR.
Assay [4] has as its target T1, apo-transferrin (iron-unbound …).
The target is the same in assay [5]. The experiment in a line: SPR. The source holds these as a separate data set.
Assay [6] shares this target. The experiment in a line: SPR. The source holds these as a separate data set.

Like-named read-outs stand apart in the source and are kept apart here.

Consider “human α-thrombin (from UniProt P00734) (enzyme)”, for which the stoichiometry N (Tf per thrombin) in assay [1] amounted to 1. Moreover, in assay [2], the Kd was determined as 7.7 nM.
Consider “apo-transferrin (iron-unbound transferrin) (from UniProt P02787 20-698) (natural protein)”, for which, in the assay with human α-thrombin (human), the enzymatic activity of thrombin on a chromogenic substrate, Tf at 0.2, 1 and 5 μM turned out to be 1.8 fold.
In assay [2], FXII (natural protein) returned an equilibrium dissociation constant (Kd) of 40 nM, a koff of 0.0012 s⁻¹ and a kon of 30000 M⁻¹ s⁻¹.

B1: human α-FXIIa (enzyme)
chain 1: IPPWEAPKEHKYKAEEHTVVLTVTGEPCHFPFQYHRQLYHKCTHKGRPGPQPWCATTPNFDQDQRWGYCLEPKKVKDHCSKHSPCQKGGTCVNMPSGPHCLCPQHLTGNHCQKEKCFEPQLLRFFHKNEIWYRTEQAAVARCQCKGPDAHCQRLASQACRTNPCLHGGRCLEVEGHRLCHCPVGYTGAFCDVDTKASCYDGRGLSYRGLARTTLSGAPCQPWASEATYRNVTAEQARNWGLGGHAFCRNPDNDIRPWCFVLNRDRLSWEYCDLAQCQTPTQAAPPTPVSPRLHVPLMPAQPAPPKPQPTTRTPPQSQTPGALPAKREQPPSLTRNGPLSCGQRLRKSLSSMTR
chain 2: VVGGLVALRGAHPYIAALYWGHSFCAGSLIAPCWVLTAAHCLQDRPAPEDLTVVLGQERRNHSCEPCQTLAVRSYRLHEAFSPVSYQHDLALLRLQEDADGSCALLSPYVQPVCLPSGAARPSETTLCQVAGWGHQFEGAEEYASFLQEAQVPFLSLERCSAPDVHGSSILPGMLCAGFLEGGTDACQGDSGGPLVCEDQAAERRLTLQGIISWGSGCGDRNKPGVYTDVAYYLAWIREHTVS
In assay [3], B1 came in with an equilibrium dissociation constant (Kd) of 13.9 nM, a koff of 0.0025 s⁻¹ and a kon of 180000 M⁻¹ s⁻¹. Also, the “stoichiometry N” value in assay [4] turned out to be 1 Tf per FXIIa.
As for RRNHSCEPCQTLAVRSYR [FX18], in assay [5], the Kd worked out at 143 nM, the koff was 0.0004 s⁻¹ and the kon turned out to be 2800 M⁻¹ s⁻¹.

B2: fibrinogen (complex)
chain 1: ADSGEGDFLAEGGGVRGPRVVERHQSACKDSDWPFCSDEDWNYKCPSGCRMKGLIDEVNQDFTNRINKLKNSLFEYQKNNKDSHSLTTNIMEILRGDFSSANNRDNTYNRVSEDLRSRIEVLKRKVIEKVQHIQLLQKNVRAQLVDMKRLEVDIDIKIRSCRGSCSRALAREVDLKDYEDQQKQLEQVIAKDLLPSRDRQHLPLIKMKPVPDLVPGNFKSQLQKVPPEWKALTDMPQMRMELERPGGNEITRGGSTSYGTGSETESPRNPSSAGSWNSGSSGPGSTGNRNPGSSGTGGTATWKPGSSGPGSTGSWNSGSSGTGSTGNQNPGSPRPGSTGTWNPGSSERGSAGHWTSESSVSGSTGQWHSESGSFRPDSPGSGNARPNNPDWGTFEEVSGNVSPGTRREYHTEKLVTSKGDKELRTGKEKVTSGSTTTTRRSCSKTVTKTVIGPDGHKEVTKEVVTSEDGSDCPEAMDLGTLSGIGTLDGFRHRHPDEAAFFDTASTGKTFPGFFSPMLGEFVSETESRGSESGIFTNTKESSSHHPGIAEFPSRGKSSSYSKQFTSSTSYNRGDSTFESKSYKMADEAGSEADHEGTHSTKRGHAKSRPVRGIHTSPLGKPSLSP
chain 2: QGVNDNEEGFFSARGHRPLDKKREEAPSLRPAPPPISGGGYRARPAKAAATQKKVERKAPDAGGCLHADPDLGVLCPTGCQLQEALLQQERPIRNSVDELNNNVEAVSQTSSSSFQYMYLLKDLWQKRQKQVKDNENVVNEYSSELEKHQLYIDETVNSNIPTNLRVLRSILENLRSKIQKLESDVSAQMEYCRTPCTVSCNIPVVSGKECEEIIRKGGETSEMYLIQPDSSVKPYRVYCDMNTENGGWTVIQNRQDGSVDFGRKWDPYKQGFGNVATNTDGKNYCGLPGEYWLGNDKISQLTRMGPTELLIEMEDWKGDKVKAHYGGFTVQNEANKYQISVNKYRGTAGNALMDGASQLMGENRTMTIHNGMFFSTYDRDNDGWLTSDPRKQCSKEDGGGWWYNRCHAANPNGRYYWGGQYTWDMAKHGTDDGVVWMNWKGSWYSMRKMSMKIRPFFPQQ
chain 3: YVATRDNCCILDERFGSYCPTTCGIADFLSTYQTKVDKDLQSLEDILHQVENKTSEVKQLIKAIQLTYNPDESSKPNMIDAATLKSRKMLEEIMKYEASILTHDSSIRYLQEIYNSNNQKIVNLKEKVAQLEAQCQEPCKDTVQIHDITGKDCQDIANKGAKQSGLYFIKPLKANQQFLVYCEIDGSGNGWTVFQKRLDGSVDFKKNWIQYKEGFGHLSPTGTTEFWLGNEKIHLISTQSAIPYALRVELEDWNGRTSTADYAMFKVGPEADKYRLTYAYFAGGDAGDAFDGFDFGDDPSDKFFTSHNGMQFSTWDNDNDKFEGNCAEQDGSGWWMNKCHAGHLNGVYYQGGTYSKASTPNGYDNGIIWATWKTRWYSMKKTTMKIIPFNRLTIGEGQQHHLGGAKQAGDV
For the molecule B2, in assay [6], the “stoichiometry N” value is 4 apo-Tf per fibrinogen.
In assay [5], RIGKHSRTRYERNIEK [TH16] returned an equilibrium dissociation constant (Kd) of 97 nM, a koff of 0.0003 s⁻¹ and a kon of 3100 M⁻¹ s⁻¹.
